# According to US8389575B2, “Control of enzymatic peracid generation” (E.I. du Pont de Nemours and Company, priority 2008, dated 2013):
# B1: B. pumilus PS213: acetyl xylan esterase with perhydrolase activity from Bacillus pumilus PS213 (SEQ ID NO: 10), cell extract of E. coli KLP18/pSW195 (protein, listed as Bacillus pumilis)
# chain: MQLFDLSLEELKKYKPKKTARPDFSDFWKKSLEELRQVEAEPTLESYDYPVKGVKVYRLTYQSFGHSKIEGFYAVPDQTGPHPALVRFHGYNASYDGGIHDIVNWALHGYATFGMLVRGQGGSEDTSVTPGGHALGWMTKGILSKDTYYYRGVYLDAVRALEVIQSFPEVDEHRIGVIGGSQGGALAIAAAALSDIPKVVVADYPYLSNFERAVDVALEQPYLEINSYFRRNSDPKVEEKAFETLSYFDLINLAGWVKQPTLMAIGLIDKITPPSTVFAAYNHLETDKDLKVYRYFGHEFIPAFQTEKLSFLQKHLLLST
# Columns and labels:
# [1] = Peracetic acid production by perhydrolases, control by initial reaction pH in sodium citrate buffer; type: biochemical; conditions: triacetin 100 mM, 0.050 mg/mL extract total protein, 25° C.
# Protocol: A cell extract of a transformant expressing perhydrolase from Bacillus pumilus PS213 (KLP18/pSW195), Thermotoga maritima MSB8 (KLP18/pSW207), Thermotoga neapolitana (KLP18/pSW196), or Bacillus subtilis ATCC® 31954™ (KLP18/pSW194) was prepared by passing a suspension of cell paste (20 wt % wet cell weight) in 0.05 M potassium phosphate buffer (pH 7.0) containing dithiothreitol (1 mM) twice through a French press having a working pressure of 16,000 psi (˜110 MPa). The crude extract was then centrifuged at 20,000×g to remove cellular debris, producing a clarified cell extract that was assayed for total soluble protein (Bicinchoninic Acid Kit for Protein Determination, Sigma Aldrich catalog #BCA1-KT). The supernatant was frozen in dry ice and stored at −80° C.
# Reactions (10 mL total volume) containing triacetin, hydrogen peroxide and centrifuged cell extract supernatant (prepared as described above) in 50 mM sodium citrate buffer (initial pH 7.2 or 6.5) were run at 25° C. A control reaction for each reaction condition was run to determine the concentration of peracetic acid produced by chemical perhydrolysis of triacetin by hydrogen peroxide in the absence of added extract protein (data not shown). Determination of the concentration of peracetic acid in the reaction mixtures was performed according to the method described by Karst et al., supra.
# [2] = Dependence of specific activity on pH for hydrolysis of triacetin by CE-7 esterases/perhydrolases (cell extracts of E. coli KLP18 transformants); type: biochemical; conditions: 200 mM triacetin, 25° C.
# Protocol: A cell extract of an E. coli transformant expressing perhydrolase from Thermotoga neapolitana (KLP18/pSW196), Thermotoga maritima MSB8 (KLP18/pSW207), Bacillus pumilus PS213 (KLP1S/pSW195), Bacillus subtilis BE1010 (KLP18/pSW189), Bacillus subtilis ATCC® 31954™ (KLP18/pSW194), or Bacillus licheniformis ATCC® 14580™ (KLP18/pSW191) was prepared by passing a suspension of cell paste (20 wt % wet cell weight) in 0.05 M potassium phosphate buffer (pH 7.0) containing dithiothreitol (1 mM) twice through a French press having a working pressure of 16,000 psi (˜110 MPa). The crude extract was then centrifuged at 20,000×g to remove cellular debris, producing a clarified cell extract that was assayed for total soluble protein (Bicinchoninic Acid Kit for Protein Determination, Sigma Aldrich catalog #BCA1-KT). A portion of the clarified Thermotoga maritima MSB8 or Thermotoga neapolitana perhydrolase-containing extract was additionally heated for 20 min at 75° C., followed immediately by cooling in an ice/water bath to 5° C. The resulting mixture was centrifuged to remove precipitated protein, and the supernatant collected and assayed for total soluble protein as before.
# Reactions (10 mL total volume) containing triacetin (200 mM) and cell extract supernatant (prepared as described above) were run at 25° C. and at a pH between 4.5 and 10.0, using the buffers and buffer concentrations listed in Table 5. The concentration of extract total protein (with or without heat-treatment to denature and precipitate E. coli-derived protein) was chosen to produce an ca. 50 mM decrease in triacetin concentration over 30 min (typically from 0.025 mg/mL to 0.40 mg/mL of total extract protein, dependent on the perhydrolase). A control reaction for each reaction condition was run to determine the concentration of triacetin hydrolyzed in the absence of added extract protein. Samples (100 μL) were removed at predetermined times and immediately added to 297 μL of dd H2O and 3 μL of 6N HCL. The resulting solution was mixed, then filtered using a 30,000 NMWL filter (Millipore) using a microcentrifuge for 2 min at 12,000 rpm. An aliquot of the filtrate (100 μL) was added to 150 μL of 0.417 mM N,N-diethyl meta-toluamide (external standard) in acetonitrile, and the resulting solution analyzed for triacetin by HPLC using a Supelco Discovery C8 column (25 cm×4.0 mm, 5 um; Supelco #59353-U40) and an isocratic mobile phase of 40% acetonitrile/60% distilled water at a flow rate of 1 mL/min. Triacetin was measured by UV detection at 225 nm.
# [3] = initial pH 6.5, sodium citrate 50 mM, H2O2 100 mM
# [4] = initial pH 6.5, sodium citrate 50 mM, H2O2 250 mM
# [5] = initial pH 7.2, sodium citrate 50 mM, H2O2 100 mM
# [6] = initial pH 7.2, sodium citrate 50 mM, H2O2 250 mM
molecule,measurement,setting,value
B1,"PAA, 1 min (ppm)",[1]; [3],170 ppm
same,"PAA, 5 min (ppm)",[1]; [3],310 ppm
same,"PAA, 30 min (ppm)",[1]; [3],830 ppm
same,"PAA, 1 min (ppm)",[1]; [4],281 ppm
same,"PAA, 5 min (ppm)",[1]; [4],652 ppm
same,"PAA, 30 min (ppm)",[1]; [4],1984 ppm
same,"PAA, 1 min (ppm)",[1]; [5],160 ppm
same,"PAA, 5 min (ppm)",[1]; [5],322 ppm
same,"PAA, 30 min (ppm)",[1]; [5],1010 ppm
same,"PAA, 1 min (ppm)",[1]; [6],465 ppm
same,"PAA, 5 min (ppm)",[1]; [6],1170 ppm
same,"PAA, 30 min (ppm)",[1]; [6],2525 ppm
same,specific activity (mmol triacetin/min/mg total extract protein),"[2]; pH 5.0, sodium acetate 0.15 M",1.8 mmol triacetin/min/mg total extract protein
same,specific activity (mmol triacetin/min/mg total extract protein),"[2]; pH 5.5, sodium acetate 0.15 M",3.5 mmol triacetin/min/mg total extract protein
same,specific activity (mmol triacetin/min/mg total extract protein),"[2]; pH 6.0, sodium citrate 0.15 M",4.2 mmol triacetin/min/mg total extract protein
same,specific activity (mmol triacetin/min/mg total extract protein),"[2]; pH 6.5, sodium citrate 0.15 M",11.6 mmol triacetin/min/mg total extract protein
same,specific activity (mmol triacetin/min/mg total extract protein),"[2]; pH 7.0, potassium phosphate 0.15 M",30.5 mmol triacetin/min/mg total extract protein
same,specific activity (mmol triacetin/min/mg total extract protein),"[2]; pH 7.5, potassium phosphate 0.15 M",33.7 mmol triacetin/min/mg total extract protein
same,specific activity (mmol triacetin/min/mg total extract protein),"[2]; pH 8.0, potassium phosphate 0.20 M",53.9 mmol triacetin/min/mg total extract protein
same,specific activity (mmol triacetin/min/mg total extract protein),"[2]; pH 8.5, Tris(hydroxymethyl)aminomethane 0.20 M",72.4 mmol triacetin/min/mg total extract protein
same,specific activity (mmol triacetin/min/mg total extract protein),"[2]; pH 9.0, Tris(hydroxymethyl)aminomethane 0.20 M",80.4 mmol triacetin/min/mg total extract protein
same,specific activity (mmol triacetin/min/mg total extract protein),"[2]; pH 9.5, glycine 0.20 M",71.1 mmol triacetin/min/mg total extract protein
